Measured values as given in publication PMC3227653 (PLoS ONE, 2011).

What follows are binders tested against Clostridium difficile toxin A (Clostridioides difficile …, UniProt P16154) (assay: SPR). Settings: both partners purified.

Row | Binder | Kd [nM] | koff [s⁻¹] | kon [M⁻¹ s⁻¹]
1 | A5.1m (VHH) VHH: QVKLEESGGGLVQAGGSLRLSCAASGRTFSMYRMGWFRQAPGKEREFVCVITRNGSSTYYADSVKGRFTCSRDNAKNTVYLQMNSLKPEDTALYYCAATSGSSYLDAAHVYDYWGQGTQVTVSS | 17 | 0.016 | 950000
2 | A20.1m (VHH) VHH: QVQLVESGGGLAQAGGSLRLSCAASGRTFSMDPMAWFRQPPGKEREFVCAGSSTGRTTYYADSVKGRFTCSRDNAKNTVYLQMNSLKPEDTAVYYCAAAPYGANWYRDEYAYWGQGTQVTVSS | 9.2 | 0.0059 | 640000
3 | A4.2m (VHH) VHH: QVKLEESGGGLVQAGGSLRLSCAASGRTFNTLSMGWFRQAPGKEREFVCAVSRSGGSTYYADSVKGRFTCSRDNAKNTVYLQMNSLKPEDTAVYYCAAAATKSNTTAYRLSFDYWGQGTQVTVSS | 20 | 0.019 | 930000
4 | A26.8m (VHH) VHH: QVKLEESGGGLVQAGGSLRLSCAASERTFSRYPVAWFRQAPGAEREFVCVISSTGTSTYYADSVKGRFTCSRDNAKVTVYLQMNNLKREDTAVYFCAVNSQRTRLQDPNEYDYWGQGTQVTVSS | 28 | 0.028 | 1e+06
